Changes are numbered by the printed parent chain. Names and notes keep the numbering of the source. Values belong to the binder of their own block, whether it stands above or below them.
Key:
[1] = biological target: T1, Sir3 (464–978) (S. cerevisiae, UniProt P06701 464-978); assay: SEC; proteins mixed in equimolar ratio, 40 min on ice; Superdex 200 Increase 3.2/300, isocratic flow, 4°; fractions on SDS-PAGE, Coomassie; conditions: both partners purified
T1 construct: Purification according to Chang et al. (2003) and King et al. (2006); also called wild-type Sir3 fragment; source: E. coli BL21 Rosetta, purified (Ni-IDA, ion exchange, Superdex 200)
T1 sequence (P06701 464-978): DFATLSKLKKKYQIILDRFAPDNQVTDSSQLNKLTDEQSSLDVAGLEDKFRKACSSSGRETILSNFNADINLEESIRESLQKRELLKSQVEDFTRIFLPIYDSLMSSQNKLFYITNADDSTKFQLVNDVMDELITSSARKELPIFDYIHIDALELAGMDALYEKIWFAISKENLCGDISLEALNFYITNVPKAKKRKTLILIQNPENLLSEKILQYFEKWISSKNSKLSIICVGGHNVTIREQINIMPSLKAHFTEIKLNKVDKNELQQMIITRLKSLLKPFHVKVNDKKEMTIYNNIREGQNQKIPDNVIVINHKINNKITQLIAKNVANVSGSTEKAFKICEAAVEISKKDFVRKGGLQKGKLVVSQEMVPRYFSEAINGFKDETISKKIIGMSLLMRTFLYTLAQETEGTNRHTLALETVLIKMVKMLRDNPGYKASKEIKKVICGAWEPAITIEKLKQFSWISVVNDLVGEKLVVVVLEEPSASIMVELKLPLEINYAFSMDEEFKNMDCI

[2] = biological target: T2, Sir3-1067(464–978) (S. cerevisiae, UniProt P06701 464-978, K657A | K658A); assay: as above; conditions: both partners purified
T2 construct: also called mutant Sir3 fragment; source: E. coli BL21 Rosetta, purified (Ni-IDA, ion exchange, Superdex 200)
T2 sequence (P06701 464-978 K657A/K658A): as the sequence (P06701 464-978) above, with K194A, K195A counted along it

binding result [1]: binds
B1: Sir4 (1217–1358) (domain or fragment, S. cerevisiae, UniProt P11978 1217-1358, looked up)
chain: SNTTEILTSVDVLGTHSQTGTQQSNMYTSTQKTELEIDNKDSVTECSKDMKEDGLSFVDIVLSKAASALDEKEKQLAVANEIIRSLSDEVMRNEIRITSLQGDLTFTKKCLENARSQISEKDAKINKLMEKDFQVNKEIKPY
notes: source: E. coli BL21 Rosetta, purified (Ni-NTA, Superdex 75)

binding result [2]: binds
B2: Sir4-ETK (1217–1358) (domain or fragment, S. cerevisiae, UniProt P11978 1217-1358, looked up)
chain: B1 chain with E94V, T98S, K109R
notes: also called Sir4-E1310V, T1314S, K1325R coiled-coil fragment; source: E. coli BL21 Rosetta, purified (Ni-NTA, Superdex 75)
